From the NTF2 design screens of Basanta et al. (2020)

Assay: protease stability score; higher = more stable; yeast display proteolysis, trypsin and chymotrypsin;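 further: log10 excess protease needed over predicted unfolded state with 0 meaning unfolded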

First: DEHARSVMRQFVHALNTGDPDEASRQVDKNVKATYGDKSVHGRESVKEWLEKLVKRMRVEVDLKTVHAQGDTVTAKAHLTAEVNGRPFKVDVHIEATVQNGKIKELVVDFDEHFTEQVES
Second: DRTAEKVLRQFLHAIRDNNPEQMVDLMDPNVTLEIGDKEITGRESAARTAKTRNDEQRMSLSDYRIDVKGDRITADIDQYNEHNGKPRRHQYILDVNIHNGKIKSLVYESDK
The protease stability score of the first is higher: 2.56 for the first, -0.029 for the second.

First: DEQEKAERLAKTAVEAYETNDPEVMRRLLPPDAEVRVGDKEIHGREENSRQVQRELDRVDRVQVSMKTVHVDGNKLNVVLELRVEHDGETDTREIVIIFDVRNGTIQAQEINIG
Second: DEDRMTEAEKILKENNPDQMRDLFDENAKAEIGDNDLHGREHIVEEQRRYNEKVDHVQYHSVTFSNGKMRFDVRASVNGKKFRFQAEFHLDNGKIKHIKIDFRDEEDEKEFKRVVG
The protease stability score of the first is lower: -0.05 for the first, 0.66 for the second.

First: DETEKAKTFMDELRKVLQTGDEEQISRNMDPNARLNVGDKTIHGRERLAKEMSDEVKRADHIDIKVKSISVHNGKVRVDFFFTLEYNGQHRRTRRIMHADISDGQIKIKQIHDN
Second: DEELQENAEHFMDDLKTGNEDSIKQNADPNAHFQIGDKTFHGREDFVKHIKKQRQHARIQLDVKNIDVQGDHVTINANVIVNVDGRPQSADVTILIRYHNGRIHTVLYSFSEKDKKKMES
The protease stability score of the first is higher: 1.4 for the first, 0.872 for the second.

First: DENREASTFMEQLQRNLRDGDHEEVVRMIDENARLEVGDKRIEGDHNVAHELMNQARRVDHFKMNITHLEVSNGRVKVVFIAKYEVNGRTEVNVYEQVLEIENGRLSLVSRRRK
Second: DRDDFRRVIHEVQKALKHGDREQLRRLLDENAKVKVGDKEYQGDERAVKVMTTIANKADRMEYKDIHLHGDSVYINVVLNHNGKKDTVVWVIAVNNGKVQFFAQETR
The protease stability score of the first is lower: 0.545 for the first, 1.01 for the second.

First: DEQATEVIERFLTALQRNDPHELKKQLDEDVRMNVGDKTLHGRDSFEKTWHEKLRTQRIELKDYRIEVQPGRVKAHVHYVVEHNGRPRTKRHTFSAEVHNGHVKHFHQQDEQ
Second: DEELMKTVHDLYSNLRQNDEHKFDELVDPNASLRVGDKRLHGREQIHDELKRQNEEIHVSRQMKEMTVHNGRADVNIRASETHNGQPDEFTIDATFELHNGRFISIDIKKRP
The protease stability score of the first is higher: -0.462 for the first, -0.529 for the second.

Going from “DENELLKTFMDIFRRAIKTGDEKLLRTMMDKDVKARVGDKDVHGREEADKEFKKIWDHADHVDIKVKEVTINGDKAHVTMDAKFVVDGKSQKVNIHVKAEVKNGRLKAKHITMG” to “DDELHKLAEEFVTALQKGDPDRANSLFDPNAKFVVGDEVLHGREDFEKWLDELKHQMRIQFESVKIDKRPGRIIIDNVFRVHVNGKPDQIRIEIDIQVHNGKIKEVIYRMDPDKFREVMS”, the protease stability score falls from 2.03 to 1.3.

First: DDRELDHAKKVAERNDPDKLRKLADPNAHLTVGDKKIHGMHNAAQKVVSMWEQADHVDIKHVDQHNGRVRVEFRFVVNGREMEMVMRFEVKNGHIKRLQLEFTSEELQKKFDKLAD
Second: DEEDLSDVLDKMDKAIVRGDEQKLQDLADPNVRAEIGDQKYHGRDAITMFFKVLTEQVDHMRIKTVELQGNKLYIVVSAHFNGQTYDVRFVADAHNGRITRIYVDPQAQKRMEE
The protease stability score of the first is lower: 0.57 for the first, 1.29 for the second.

Compared with “DEERVKQLAEKAFKAIQNNDQEKLEKMGKPNVQYEYVDKKYEGPEVVKVVIKVVQKIGAKLETQEQEVKGDTARATFQYKNGDKTMQTTAEVRYKGDKMEEFRMELSDEVKKVVHQG”, “DEDREKEVVDILRDGNPDDAREMADENVTVRVGNKVIHGREEYHRFIKRMQDQADHRHIDSVHHRPGRVRIQFRAVVDGQKFSAQMTVKVENGRVKSAQLDATDESVKKILEHIFG” is higher in protease stability score: -0.207 for the first, 1.16 for the second.

Going from “DEEVLEQVKKYIDAEKSNDPDQAVKLFDENADMQIGDKRVNGREQIKTEIERRIREMNRDVEVTHVHVDNGRATLTVRLRFTVNGKPHEDRFIIQAHATNGRINTLTVHFDEQSKRDVDK” to “DEKDVEKLQRLIKTGNEDHIANEADPNVQVTIGDDVIHGREEAVRQIQKWQRQVDHVEIKSMESQGEKVHVRRVLTVNGKNFEFTLQAEMHNGTLTHFDIQFRSEEDNKRFLKVVS”, the protease stability score falls from 0.741 to 0.32.

Compared with “DEQDEVKTLLDEIRKALETNDRERLRELVDKDAHFEYGDKKYQGSEHAARQMVEEQKNIDSQSVQLRDVQIHNGQANVDVVIEYTHNGRKRTFDAKFRFKVENGRVKLVENVQS”, “DEDEDKRIQEVLEQNDFETLSKQADENAKVQYGDTEVHGRRKAYEYLRRLKRSIDHIHYHSIHVHNGRAKMTAEAHFNGRKAVFIVVLQFENGRIRMVVFRATDSRIKKIIKEALN” is higher in protease stability score: 0.895 for the first, 0.988 for the second.

Compared with “DESDMKRQAELFIRAVNTGDSDKVRKMADKDAHYDVGDKEIHGRENAARWVQRLREQADEVTVRDVRVQGEKVVIDVQADVNGRDVRMDLVIEFHNGKAQEVKMKHS”, “DEEVQNLFEELVEAVKTGDEDRLRENVDPNATFEYGDKTFHGMDTFVKTVKKIRESMRLTLEVKSYEVQGDKVKAEVDAKQDHNGQPVSYTMDLHIDARNGKVKRIVRQVPEEDKTRIER” is lower in protease stability score: 0.025 for the first, -0.032 for the second.

Going from “DDEQANEIISIMETGDPDKLSNMADENAKIVIGDTQIHGREDYERVATILYKQIDHHHFEHLTFTGDKVVIVWQYVVNGKQVRQRVKFDVHNGRLKHMRMEFTDPEELKIVEEILS” to “DEEQVKKVLETLVKALQKGNIEEILKMLKEDVEFVLIDEKYQGREDAKKIVKQLVDQGMEVHFDRHEVTGNQAHVQTRWHYGNKEAHAEVTYYVKGDTVDKVDIQWSETAKKAVKEG”, the protease stability score falls from 1.59 to 1.13.

For “DEDTIKKLVKRMIDALVKNNTEEARRLLKPDVRFEAVDTEVRGPDQVATYYKKVKDLGVEIRVKEYKVEGNHAKVKYDMRHGGDQITVEAELEAKDSKVDRFRHEDDEKYQKTVKHG”, the protease stability score was 0.154.
